Measured values published in the supplement of paper PMC9233669.
Fewer inactive variants are shown than the library holds.

How the values were obtained:
[1] = system: biotinyl-Phe-oxazolone; experiment: self-aminoacylation, catalytic enhancement (BFO) (fold over background); higher = more active; k-Seq, kA / k0A0; sequences stand for … in GGGAAUGGAUCCACAUCUACGAAUUC…UUCACUGCAGACUUGACGAAGCUG
Procedure, shortened: (§1)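 Working in 50 μL HEPES/NaCl/KCl/MgCl2/CaCl2 buffer with 5% acetonitrile at pH 6.9–7.0, mutagenized RNA pools (0.43 μM; 21-nt variable region) were reacted with 2–1250 μM of each biotinyl-aminoacyl-oxazolone for 90 minutes at room temperature. Streptavidin capture followed, with quantification by triplicate qPCR and Illumina sequencing. Catalytic enhancement is reported as median kA over the uncatalyzed rate, the low-activity peak of a bimodal Gaussian fit to the data.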

[2] = system: biotinyl-Ile-oxazolone; experiment: self-aminoacylation, catalytic enhancement (BIO) (fold over background); higher = more active; k-Seq, kA / k0A0; sequences stand for … in GGGAAUGGAUCCACAUCUACGAAUUC…UUCACUGCAGACUUGACGAAGCUG
Procedure, shortened: as §1

[3] = system: biotinyl-Met-oxazolone; experiment: self-aminoacylation, catalytic enhancement (BMO) (fold over background); higher = more active; k-Seq, kA / k0A0; sequences stand for … in GGGAAUGGAUCCACAUCUACGAAUUC…UUCACUGCAGACUUGACGAAGCUG
Procedure, shortened: as §1

[4] = system: biotinyl-Val-oxazolone; experiment: self-aminoacylation, catalytic enhancement (BVO) (fold over background); higher = more active; k-Seq, kA / k0A0; sequences stand for … in GGGAAUGGAUCCACAUCUACGAAUUC…UUCACUGCAGACUUGACGAAGCUG
Procedure, shortened: as §1

[5] = system: biotinyl-Leu-oxazolone; experiment: self-aminoacylation, catalytic enhancement (BLO) (fold over background); higher = more active; k-Seq, kA / k0A0; sequences stand for … in GGGAAUGGAUCCACAUCUACGAAUUC…UUCACUGCAGACUUGACGAAGCUG
Procedure, shortened: as §1

[6] = system: biotinyl-Trp-oxazolone; experiment: self-aminoacylation, catalytic enhancement (BWO) (fold over background); higher = more active; k-Seq, kA / k0A0; sequences stand for … in GGGAAUGGAUCCACAUCUACGAAUUC…UUCACUGCAGACUUGACGAAGCUG
Procedure, shortened: as §1

| Sequence | self-aminoacylation [1] | self-aminoacylation [2] | self-aminoacylation [3] | self-aminoacylation [4] | self-aminoacylation [5] | self-aminoacylation [6] |
| --- | --- | --- | --- | --- | --- | --- |
| CCACACUUCAAGCAAUGGGUC [Fam1B.1 aminoacylation ribozyme variant] | 0.841 | 0.78 | 0.677 | 0.793 | 0.677 | 0.627 |
| CCACACUUCAAGCAAUGGUUC [Fam1B.1 aminoacylation ribozyme variant] | 0.776 | 0.619 | 0.61 | 0.574 | 0.596 | 0.678 |
| CCACACUUCAAGCAAUUGGGC [Fam1B.1 aminoacylation ribozyme variant] | 1 | 1.79 | 2.12 | 1.98 | 2.16 | 2.98 |
| CCACACUUCAAGCACGCGGUC [Fam1B.1 aminoacylation ribozyme variant] | 0.928 | 1.76 | 2.3 | 2.1 | 1.54 | 1.91 |
| CCACACUUCAAGCAGUCAGUC [Fam1B.1 aminoacylation ribozyme variant] | 0.947 | 0.788 | 0.562 | 0.91 | 0.717 | 0.54 |
| CCACACUUCAAGCAUCCGGUC [Fam1B.1 aminoacylation ribozyme variant] | 0.999 | 1.03 | 0.859 | 1.38 | 0.817 | 1.11 |
| CCACACUUCAAGCAUUCGGGC [Fam1B.1 aminoacylation ribozyme variant] | 1.51 | 2.54 | 2.37 | 2.83 | 1.79 | 2.99 |
| CCACACUUCAAGCAUUCGGUC [Fam1B.1 aminoacylation ribozyme variant] | 0.969 | 1.12 | 0.887 | 1.27 | 0.899 | 0.943 |
| CCACACUUCAAGCAUUCUGUC [Fam1B.1 aminoacylation ribozyme variant] | 0.618 | 0.414 | 0.32 | 0.497 | 0.284 | 0.372 |
| CCACACUUCAAGCCACCGGUC [Fam1B.1 aminoacylation ribozyme variant] | 1.28 | 1.64 | 1.43 | 2.12 | 1.47 | 1.23 |
| CCACACUUCAAGCGAUCGGCC [Fam1B.1 aminoacylation ribozyme variant] | 20.2 | 3.31 | 4.7 | 5.25 | 2.6 | 7.01 |
| CCACACUUCAAGCGAUCGGUG [Fam1B.1 aminoacylation ribozyme variant] | 41.8 | 4.19 | 6.68 | 4.66 | 8.84 | 6.74 |
| CCACACUUCAAGCGCUCGGUC [Fam1B.1 aminoacylation ribozyme variant] | 3.37 | 1.04 | 0.81 | 1.09 | 1.21 | 1.41 |
| CCACACUUCAAGCUAGCGGUC [Fam1B.1 aminoacylation ribozyme variant] | 0.856 | 0.921 | 0.714 | 0.911 | 0.984 | 0.75 |
| CCACACUUCAAGCUAUCCGUC [Fam1B.1 aminoacylation ribozyme variant] | 0.797 | 1.04 | 0.761 | 1.27 | 0.736 | 1.13 |
| CCACACUUCAAGCUAUCGUUC [Fam1B.1 aminoacylation ribozyme variant] | 0.96 | 0.677 | 0.542 | 0.908 | 0.574 | 0.521 |
| CCACACUUCAAGCUAUCUGUC [Fam1B.1 aminoacylation ribozyme variant] | 0.636 | 0.468 | 0.284 | 0.612 | 0.362 | 0.371 |
| CCACACUUCAAGGAACCGGUC [Fam1B.1 aminoacylation ribozyme variant] | 1.2 | 1.04 | 1.04 | 0.945 | 0.984 | 0.809 |
| CCACACUUCAAGGAAUCAGUC [Fam1B.1 aminoacylation ribozyme variant] | 2.49 | 0.668 | 0.614 | 0.757 | 0.62 | 1.08 |
| CCACACUUCAAGGAAUCCGUC [Fam1B.1 aminoacylation ribozyme variant] | 0.963 | 1.24 | 1.65 | 1.14 | 1.08 | 1.07 |
| CCACACUUCAAGGAUUCGGUC [Fam1B.1 aminoacylation ribozyme variant] | 0.958 | 1.85 | 1.83 | 2.02 | 2.02 | 1.96 |
| CCACACUUCAAGGCAUCGGUC [Fam1B.1 aminoacylation ribozyme variant] | 1.18 | 1.03 | 1.02 | 1.32 | 1.18 | 1.16 |
| CCACACUUCAAGUAAUCAGUC [Fam1B.1 aminoacylation ribozyme variant] | 4.86 | 0.686 | 0.586 | 0.723 | 0.635 | 1.72 |
| CCACACUUCAAGUAAUCGGAC [Fam1B.1 aminoacylation ribozyme variant] | 0.783 | 0.743 | 0.826 | 0.907 | 0.696 | 1.05 |
| CCACACUUCAAUCACUCGGUC [Fam1B.1 aminoacylation ribozyme variant] | 0.947 | 0.936 | 0.763 | 0.984 | 0.773 | 0.753 |
| CCACACUUCACACAAUCGGUC [Fam1B.1 aminoacylation ribozyme variant] | 0.775 | 0.878 | 0.601 | 1.02 | 0.687 | 0.837 |

| Sequence | self-aminoacylation [1] | self-aminoacylation [2] | self-aminoacylation [3] | self-aminoacylation [4] | self-aminoacylation [5] | self-aminoacylation [6] |
| --- | --- | --- | --- | --- | --- | --- |
| CCACACUUCACGCAAUCGGGC [Fam1B.1 aminoacylation ribozyme variant] | 20 | 2.42 | 2.18 | 3.33 | 2.39 | 2.1 |
| CCACACUUCACGCAAUCGGUG [Fam1B.1 aminoacylation ribozyme variant] | 52.2 | 3.09 | 5.89 | 3.5 | 7.74 | 6.24 |
| CCACACUUCACGCAAUCGUUC [Fam1B.1 aminoacylation ribozyme variant] | 0.716 | 0.725 | 0.717 | 0.905 | 0.794 | 0.939 |
| CCACACUUCACGCAGUCGGUC [Fam1B.1 aminoacylation ribozyme variant] | 0.859 | 1.13 | 0.94 | 1.47 | 1.31 | 0.719 |
| CCACACUUCAGGCAAUCAGUC [Fam1B.1 aminoacylation ribozyme variant] | 0.955 | 0.658 | 0.724 | 1.05 | 0.636 | 0.796 |
| CCACACUUCAGGCAAUCGGCC [Fam1B.1 aminoacylation ribozyme variant] | 13.1 | 2.61 | 2.15 | 3.89 | 4.67 | 3.69 |
| CCACACUUCAGGCAAUCGGUG [Fam1B.1 aminoacylation ribozyme variant] | 36.7 | 3.23 | 5.39 | 3.41 | 7.5 | 4.89 |
| CCACACUUCAGGCAAUGGGUC [Fam1B.1 aminoacylation ribozyme variant] | 0.992 | 0.733 | 0.802 | 0.722 | 0.702 | 0.952 |
| CCACACUUCAGGCAAUUGGUC [Fam1B.1 aminoacylation ribozyme variant] | 0.558 | 0.887 | 0.647 | 0.83 | 0.823 | 0.556 |
| CCACACUUCAGGCAUUCGGUC [Fam1B.1 aminoacylation ribozyme variant] | 1.09 | 2.2 | 1.88 | 2.48 | 2.2 | 2.27 |
| CCACACUUCAGGCCAUCGGUC [Fam1B.1 aminoacylation ribozyme variant] | 7.44 | 2.37 | 1.94 | 2.49 | 1.77 | 1.69 |
| CCACACUUCAUGCAAUCGGUC [Fam1B.1 aminoacylation ribozyme variant] | 0.866 | 0.819 | 0.687 | 0.9 | 0.693 | 0.689 |
| CCACACUUCAUGCAAUCUGUC [Fam1B.1 aminoacylation ribozyme variant] | 0.605 | 0.454 | 0.391 | 0.479 | 0.35 | 0.277 |
| CCACACUUCAUGCAAUUGGUC [Fam1B.1 aminoacylation ribozyme variant] | 0.619 | 0.658 | 0.764 | 0.791 | 0.627 | 0.43 |
| CCACACUUCAUGCCAUCGGUC [Fam1B.1 aminoacylation ribozyme variant] | 0.488 | 0.957 | 0.691 | 1.1 | 0.921 | 1.59 |
| CCACACUUCAUGCUAUCGGUC [Fam1B.1 aminoacylation ribozyme variant] | 0.838 | 0.834 | 0.626 | 0.931 | 0.69 | 0.714 |
| CCACACUUCCACCAAUCGGUC [Fam1B.1 aminoacylation ribozyme variant] | 0.478 | 0.908 | 0.51 | 0.962 | 0.643 | 0.847 |
| CCACACUUCCAGCAUUCGGUC [Fam1B.1 aminoacylation ribozyme variant] | 1.12 | 2.48 | 2.05 | 2.81 | 2.42 | 2.58 |
| CCACACUUCCAGCGAUCGGUC [Fam1B.1 aminoacylation ribozyme variant] | 1.52 | 1.78 | 1.68 | 1.97 | 1.51 | 1.46 |
| CCACACUUCGAACAAUCGGUC [Fam1B.1 aminoacylation ribozyme variant] | 1.11 | 0.833 | 0.98 | 0.957 | 0.862 | 0.84 |
| CCACACUUCGAGAAAUCGGUC [Fam1B.1 aminoacylation ribozyme variant] | 0.511 | 0.951 | 1.18 | 0.976 | 1.12 | 0.812 |
| CCACACUUCGAGCAAUCGCUC [Fam1B.1 aminoacylation ribozyme variant] | 5.11 | 1.98 | 2.13 | 2.62 | 1.71 | 2.71 |
| CCACACUUCGAGCAAUCGUUC [Fam1B.1 aminoacylation ribozyme variant] | 0.683 | 0.516 | 0.412 | 0.569 | 0.493 | 0.469 |
| CCACACUUCUAGCAAUCGCUC [Fam1B.1 aminoacylation ribozyme variant] | 1.02 | 1.11 | 0.72 | 1.04 | 0.829 | 0.453 |
| CCACACUUCUAGCAAUCGUUC [Fam1B.1 aminoacylation ribozyme variant] | 1.04 | 0.767 | 0.511 | 1.01 | 0.558 | 0.481 |
